From patent US20170190751A1 (published 2017)

What follows are binders tested against mouse megalin (mouse, UniProt A2ARV4 26-4660) (assay: cell-based or functional assay).
Sequence of mouse megalin (A2ARV4 26-4660 limits assumed): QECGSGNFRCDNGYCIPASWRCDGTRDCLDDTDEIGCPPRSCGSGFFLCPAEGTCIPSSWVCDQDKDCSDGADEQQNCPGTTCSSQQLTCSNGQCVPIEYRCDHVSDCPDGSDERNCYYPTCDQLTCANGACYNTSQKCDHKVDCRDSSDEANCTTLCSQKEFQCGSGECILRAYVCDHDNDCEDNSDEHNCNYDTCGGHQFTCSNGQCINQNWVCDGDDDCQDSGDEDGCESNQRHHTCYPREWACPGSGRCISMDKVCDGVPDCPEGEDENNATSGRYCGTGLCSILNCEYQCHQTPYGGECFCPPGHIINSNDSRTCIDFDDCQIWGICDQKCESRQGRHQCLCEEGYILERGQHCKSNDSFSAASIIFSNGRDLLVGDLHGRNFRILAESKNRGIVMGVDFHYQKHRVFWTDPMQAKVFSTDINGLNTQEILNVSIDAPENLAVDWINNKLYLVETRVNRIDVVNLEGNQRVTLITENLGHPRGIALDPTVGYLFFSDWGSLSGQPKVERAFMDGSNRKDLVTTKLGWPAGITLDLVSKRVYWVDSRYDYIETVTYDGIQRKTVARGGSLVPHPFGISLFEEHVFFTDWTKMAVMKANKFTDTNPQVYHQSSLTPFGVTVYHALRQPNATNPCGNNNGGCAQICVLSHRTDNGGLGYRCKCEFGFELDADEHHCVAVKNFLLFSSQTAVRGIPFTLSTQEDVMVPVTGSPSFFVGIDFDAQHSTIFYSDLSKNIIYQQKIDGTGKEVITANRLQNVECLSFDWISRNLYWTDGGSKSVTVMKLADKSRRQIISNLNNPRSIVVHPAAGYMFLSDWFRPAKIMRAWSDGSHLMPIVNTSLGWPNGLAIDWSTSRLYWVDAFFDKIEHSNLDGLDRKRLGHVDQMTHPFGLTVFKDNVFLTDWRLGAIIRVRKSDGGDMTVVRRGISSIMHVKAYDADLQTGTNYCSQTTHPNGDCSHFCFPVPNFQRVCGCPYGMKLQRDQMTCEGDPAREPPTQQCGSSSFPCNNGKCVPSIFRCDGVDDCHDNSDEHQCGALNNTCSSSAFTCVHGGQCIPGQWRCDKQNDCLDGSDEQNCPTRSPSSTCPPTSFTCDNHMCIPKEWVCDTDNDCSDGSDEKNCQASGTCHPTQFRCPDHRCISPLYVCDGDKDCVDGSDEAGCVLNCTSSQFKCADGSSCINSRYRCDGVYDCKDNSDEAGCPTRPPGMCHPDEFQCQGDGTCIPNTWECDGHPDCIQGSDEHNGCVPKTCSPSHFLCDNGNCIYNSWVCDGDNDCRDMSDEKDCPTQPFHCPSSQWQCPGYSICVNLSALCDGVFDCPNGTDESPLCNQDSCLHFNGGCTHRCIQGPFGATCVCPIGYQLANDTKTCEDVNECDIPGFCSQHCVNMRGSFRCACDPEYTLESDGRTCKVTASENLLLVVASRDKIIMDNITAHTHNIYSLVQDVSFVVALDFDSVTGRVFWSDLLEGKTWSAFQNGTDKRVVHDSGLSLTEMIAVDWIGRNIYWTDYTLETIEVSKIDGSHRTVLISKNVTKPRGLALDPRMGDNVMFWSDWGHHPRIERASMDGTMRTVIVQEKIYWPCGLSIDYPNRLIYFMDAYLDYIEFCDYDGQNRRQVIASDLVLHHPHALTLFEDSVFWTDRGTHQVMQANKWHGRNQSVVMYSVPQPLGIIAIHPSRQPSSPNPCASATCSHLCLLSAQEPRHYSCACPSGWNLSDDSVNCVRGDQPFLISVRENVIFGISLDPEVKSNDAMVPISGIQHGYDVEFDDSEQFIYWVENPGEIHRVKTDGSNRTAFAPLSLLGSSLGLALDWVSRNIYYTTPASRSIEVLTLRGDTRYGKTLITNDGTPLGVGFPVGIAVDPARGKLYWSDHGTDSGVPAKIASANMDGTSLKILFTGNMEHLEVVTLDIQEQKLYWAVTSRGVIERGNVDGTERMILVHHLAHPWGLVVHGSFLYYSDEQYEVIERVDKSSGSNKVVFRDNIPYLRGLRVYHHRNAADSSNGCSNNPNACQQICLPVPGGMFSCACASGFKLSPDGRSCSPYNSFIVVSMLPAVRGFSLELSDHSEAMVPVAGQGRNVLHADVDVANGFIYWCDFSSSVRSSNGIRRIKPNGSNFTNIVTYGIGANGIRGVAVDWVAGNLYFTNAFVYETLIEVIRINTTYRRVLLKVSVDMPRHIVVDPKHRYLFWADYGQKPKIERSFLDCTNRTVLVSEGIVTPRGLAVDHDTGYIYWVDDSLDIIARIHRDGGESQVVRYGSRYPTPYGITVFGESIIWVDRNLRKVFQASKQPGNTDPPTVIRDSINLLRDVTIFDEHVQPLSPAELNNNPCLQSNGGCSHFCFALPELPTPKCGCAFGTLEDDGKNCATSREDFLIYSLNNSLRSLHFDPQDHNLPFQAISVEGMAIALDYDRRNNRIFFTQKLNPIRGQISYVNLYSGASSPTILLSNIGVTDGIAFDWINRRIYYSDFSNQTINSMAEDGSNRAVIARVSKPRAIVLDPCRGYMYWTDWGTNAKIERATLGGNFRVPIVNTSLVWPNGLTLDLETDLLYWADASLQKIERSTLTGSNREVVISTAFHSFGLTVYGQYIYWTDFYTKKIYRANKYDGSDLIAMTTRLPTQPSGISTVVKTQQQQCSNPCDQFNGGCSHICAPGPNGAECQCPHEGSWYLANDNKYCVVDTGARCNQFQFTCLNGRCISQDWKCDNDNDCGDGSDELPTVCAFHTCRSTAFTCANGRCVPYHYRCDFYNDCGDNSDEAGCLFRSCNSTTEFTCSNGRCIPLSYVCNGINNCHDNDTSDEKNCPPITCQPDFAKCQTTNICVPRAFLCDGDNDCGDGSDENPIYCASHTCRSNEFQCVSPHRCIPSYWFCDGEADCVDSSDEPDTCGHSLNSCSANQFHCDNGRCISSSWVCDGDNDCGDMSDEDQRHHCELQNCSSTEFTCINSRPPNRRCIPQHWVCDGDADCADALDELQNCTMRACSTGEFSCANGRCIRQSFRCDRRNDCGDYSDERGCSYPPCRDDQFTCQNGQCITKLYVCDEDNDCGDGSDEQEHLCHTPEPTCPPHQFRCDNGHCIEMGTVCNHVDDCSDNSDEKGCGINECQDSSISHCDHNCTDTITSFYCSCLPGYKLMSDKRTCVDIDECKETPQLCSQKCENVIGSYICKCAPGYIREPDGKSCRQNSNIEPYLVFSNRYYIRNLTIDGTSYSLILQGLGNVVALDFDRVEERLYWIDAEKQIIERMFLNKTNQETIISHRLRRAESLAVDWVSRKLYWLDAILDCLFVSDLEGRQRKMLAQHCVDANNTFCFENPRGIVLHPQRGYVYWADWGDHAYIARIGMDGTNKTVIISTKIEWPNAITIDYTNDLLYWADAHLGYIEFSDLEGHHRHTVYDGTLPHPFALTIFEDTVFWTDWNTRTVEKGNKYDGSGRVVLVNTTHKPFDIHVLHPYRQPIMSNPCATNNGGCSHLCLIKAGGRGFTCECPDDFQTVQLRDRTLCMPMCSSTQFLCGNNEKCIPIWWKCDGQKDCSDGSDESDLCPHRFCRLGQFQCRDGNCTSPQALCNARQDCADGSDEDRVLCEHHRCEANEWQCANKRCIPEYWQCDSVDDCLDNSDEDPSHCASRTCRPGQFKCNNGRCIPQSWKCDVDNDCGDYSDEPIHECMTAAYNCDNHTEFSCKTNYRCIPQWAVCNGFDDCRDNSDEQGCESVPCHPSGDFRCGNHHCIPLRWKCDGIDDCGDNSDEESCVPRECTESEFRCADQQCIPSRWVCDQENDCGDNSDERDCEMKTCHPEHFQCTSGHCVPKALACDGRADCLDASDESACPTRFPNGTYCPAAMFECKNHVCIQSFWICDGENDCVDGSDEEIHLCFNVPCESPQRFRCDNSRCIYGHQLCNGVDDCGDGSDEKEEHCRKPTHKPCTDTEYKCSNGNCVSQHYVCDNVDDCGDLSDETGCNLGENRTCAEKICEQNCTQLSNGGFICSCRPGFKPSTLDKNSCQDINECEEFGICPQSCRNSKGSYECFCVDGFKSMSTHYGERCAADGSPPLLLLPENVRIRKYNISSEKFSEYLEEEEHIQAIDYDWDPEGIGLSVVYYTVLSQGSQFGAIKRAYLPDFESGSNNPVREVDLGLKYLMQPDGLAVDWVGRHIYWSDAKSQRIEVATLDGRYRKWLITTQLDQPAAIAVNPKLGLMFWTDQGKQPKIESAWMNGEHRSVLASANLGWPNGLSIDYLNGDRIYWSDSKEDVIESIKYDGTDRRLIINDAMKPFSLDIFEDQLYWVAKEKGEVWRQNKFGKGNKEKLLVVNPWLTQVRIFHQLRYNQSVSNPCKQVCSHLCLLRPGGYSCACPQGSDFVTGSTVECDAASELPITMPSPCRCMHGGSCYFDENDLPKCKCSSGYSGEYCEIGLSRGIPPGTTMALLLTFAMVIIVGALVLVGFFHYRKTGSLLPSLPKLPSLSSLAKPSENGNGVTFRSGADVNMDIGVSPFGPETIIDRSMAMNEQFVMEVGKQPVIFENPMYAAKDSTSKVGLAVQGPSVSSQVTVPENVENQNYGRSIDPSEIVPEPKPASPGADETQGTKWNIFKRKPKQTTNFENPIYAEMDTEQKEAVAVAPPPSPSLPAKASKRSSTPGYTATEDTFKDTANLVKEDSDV

Binder	% of i.p. injected NGAL-enterochelin-55Fe3+ complex delivered to mouse urine after 3 hours (escape from renal reabsorption)
I1 NGAL mutant (ligand) QDSTSDLIPAPPLSSVPLQQNFQDNQFQGKWYVVGLAGNAILREDKDPQKMYATIYELKEDKSYNVTSVLFRDDGCDYWIRTFVPGCQPGEFTLGNIKSYPGLTSYLVRVVSTNYNQHAMVFFKKVSQNQEYFKITLYGRTKELTSELKENFIRFSKSLGLPENHIVFPVPIDQCIDG	6%
I3 NGAL mutant (ligand) QDSTSDLIPAPPLSKVPLQQNFQDNQFQGKWYVVGLAGNAILREDKDPQKMYATIYELKEDGSYNVTSVLFRDDGCDYWIRTFVPGCQPGEFTLGNIQSYPGLTSYLVRVVSTNYNQHAMVFFKKVSQNREYFKITLYGRTKELTSELKENFIRFSKSLGLPENHIVFPVPIDQCIDG	6.9%
A2 NGAL mutant (ligand) QDSTSDLIPAPPLSSVPLQQNFQDNQFQGKWYVVGLAGNAILREDKDPQKMYATIYELKEDKSYNVTSVLFRKKKCDYWIRTFVPGCQPGEFTLGNIKSYPGLTSYLVRVVSTNYNQHAMVFFKKVSQNREYFKITLYGQTQELTSELKENFIRFSKSLGLPENHIVFPVPIDQCIDG	0.18%
K1 NGAL mutant (ligand) QDSTSDLIPAPPLSSVPLQQNFQDNQFQGKWYVVGLAGNAILREDEDPQKMYATIYELQEDKSYNVTSVLFRKKKCDYWIRTFVPGCQPGEFTLGNIQSYPGLTSYLVRVVSTNYNQFAMVFFKKVSQNQEYFKITLYGRTKELTSELQENFIRFSKSLGLPENNIVFPVPIDQCIDG	1.9%
D1 NGAL mutant (ligand) QDSTSDLIPAPPLSKVPLQQNFQDNQFQGKWYVVGLAGNAILREDKDPQKMYATIYELKEDKSYNVTSVLFRDDGCDYWIRTFVPGCQPGEFTLGNIKSYPGLTSYLVRVVSTNYNQHAMVFFKKVSQNREYFKITLYGRTKELTSELKENFIRFSKSLGLPENHIVFPVPIDQCIDG	0.1%
C3 NGAL mutant (ligand) QDSTSDLIPAPPLSSVPLQQNFQDNQFQGKWYVVGLAGNAILREDKDPQTMYATIYELKEDKSYNVTSVLFQKKKCDYWIRTFVPGCQPGEFTLGNIKSYPGLTSYLVRVVSTNYNQHAMVFFKKVSQNREYFKITLYGRTKELTSELQENFIRFSQSLGLPENHIVFPVPIDQCIDG	0.26%
K2 NGAL mutant (ligand) QDSTSDLIPAPPLSSVPLQQNFQDNQFQGKWYVVGLAGNAILREDKDPQKMYATIYELKEDKSYNVTSVLFRDDGCDYWIRTFVPGCQPGEFTLGNIQSYPGLTSYLVRVVSTNYNQFAMVFFKKVSQNQEYFKITLYGRTKELTSELQENFIRFSKSLGLPENNIVFPVPIDQCIDG	9.3%
H2 NGAL mutant (ligand) QDSTSDLIPAPPLSSVPLQQNFQDNQFQGKWYVVGLAGNAILREDKDPQKMYATIYELKEDKSYNVTSVLFRKKKCDYWIRTFVPGCQPGEFTLGNIQSYPGLTSYLVRVVSTNYNQFAMVFFKKVSQNQEYFKITLYGRTKELTSELQENFIRFSKSLGLPENNIVFPVPIDQCIDG	0.27%
F2 NGAL mutant (ligand) QDSTSDLIPAPPLSKVPLQQNFQDNQFQGKWYVVGLAGNAILREDEDPQKMYATIYELQEDKSYNVTSVLFRKKKCDYWIRTFVPGCQPGEFTLGNIKSYPGLTSYLVRVVSTNYNQHAMVFFKKVSQNREYFKITLYGRTKELTSELKENFIRFSKSLGLPENHIVFPVPIDQCIDG	0.11%

Further lines, results first:

% of i.p. injected NGAL-enterochelin-55Fe3+ complex delivered to mouse urine after 3 hours (escape from renal reabsorption)	Binder
2.9%	K5 NGAL mutant (ligand) QDSTSDLIPAPPLSSVPLQQNFQDNQFQGKWYVVGLAGNAILREDEDPQKMYATIYELKEDKSYNVTSVLFRKKKCDYWIRTFVPGCQPGEFTLGNIQSYPGLTSYLVRVVSTNYNQFAMVFFKKVSQNQEYFKITLYGRTKELTSELQENFIRFSKSLGLPENNIVFPVPIDQCIDG
0.17%	G3 NGAL mutant (ligand) QDSTSDLIPAPPLSKVPLQQNFQDNQFQGKWYVVGLAGNAILREDKDPQKMYATIYELKEDKSYNVTSVLFRKKKCDYWIRTFVPGCQPGEFTLGNIKSYPGLTSYLVRVVSTNYNQHAMVFFKKVSQNREYFKITLYGRTKELTSELKENFIRFSQSLGLPENHIVFPVPIDQCIDG
0.05%	I5 NGAL mutant (ligand) QDSTSDLIPAPPLSSVPLQQNFQDNQFQGKWYVVGLAGNAILREDKDPQKMYATIYELKEDGSYNVTSVLFRDDGCDYWIRTFVPGCQPGEFTLGNIKSYPGLTSYLVRVVSTNYNQHAMVFFKKVSQNQEYFKITLYGRTKELTSELKENFIRFSKSLGLPENHIVFPVPIDQCIDG
19.6%	K3 NGAL mutant protein (ligand) QDSTSDLIPAPPLSSVPLQQNFQDNQFQGKWYVVGLAGNAILREDEDPQKMYATIYELKEDKSYNVTSVLFRDDGCDYWIRTFVPGCQPGEFTLGNIQSYPGLTSYLVRVVSTNYNQFAMVFFKKVSQNQEYFKITLYGRTKELTSELQENFIRFSKSLGLPENNIVFPVPIDQCIDG
0.13%	B4 NGAL mutant (ligand) QDSTSDLIPAPPLSKVPLQQNFQDNQFQGKWYVVGLAGNAILREDEDPQKMYATIYELKEDKSYNVTSVLFRKKKCDYWIRTFVPGCQPGEFTLGNIQSYPGLTSYLVRVVSTNYNQHAMVFFKKVSQNREYFKITLYGRTKELTSELKENFIRFSKSLGLPENHIVFPVPIDQCIDG
